Numbering of substitutions follows the chain as printed.
Key:
[1] = biological target: T1, SARS-COV-2 RBD (His-tagged, Sinobiologicals) (SARS-CoV-2 (Wuhan), UniProt P0DTC2 319-541); experiment: ELISA, periplasmic extract 1/10, OD450 antigen/OD450 BSA [B]
BSA [2] = biological target: T2, BSA (bovine, UniProt P02769); experiment: ELISA, coated BSA, dilution series, OD450 [2/3]
T2 construct: coated control antigen

[3] = biological target: T3, MERS-COV spike expressed on transfected cells (MERS-CoV, UniProt K9N5Q8 18-1353); experiment: flow cytometry, transfected HEK cells, MFI GFP+/GFP- cells [1/3]
T3 sequence: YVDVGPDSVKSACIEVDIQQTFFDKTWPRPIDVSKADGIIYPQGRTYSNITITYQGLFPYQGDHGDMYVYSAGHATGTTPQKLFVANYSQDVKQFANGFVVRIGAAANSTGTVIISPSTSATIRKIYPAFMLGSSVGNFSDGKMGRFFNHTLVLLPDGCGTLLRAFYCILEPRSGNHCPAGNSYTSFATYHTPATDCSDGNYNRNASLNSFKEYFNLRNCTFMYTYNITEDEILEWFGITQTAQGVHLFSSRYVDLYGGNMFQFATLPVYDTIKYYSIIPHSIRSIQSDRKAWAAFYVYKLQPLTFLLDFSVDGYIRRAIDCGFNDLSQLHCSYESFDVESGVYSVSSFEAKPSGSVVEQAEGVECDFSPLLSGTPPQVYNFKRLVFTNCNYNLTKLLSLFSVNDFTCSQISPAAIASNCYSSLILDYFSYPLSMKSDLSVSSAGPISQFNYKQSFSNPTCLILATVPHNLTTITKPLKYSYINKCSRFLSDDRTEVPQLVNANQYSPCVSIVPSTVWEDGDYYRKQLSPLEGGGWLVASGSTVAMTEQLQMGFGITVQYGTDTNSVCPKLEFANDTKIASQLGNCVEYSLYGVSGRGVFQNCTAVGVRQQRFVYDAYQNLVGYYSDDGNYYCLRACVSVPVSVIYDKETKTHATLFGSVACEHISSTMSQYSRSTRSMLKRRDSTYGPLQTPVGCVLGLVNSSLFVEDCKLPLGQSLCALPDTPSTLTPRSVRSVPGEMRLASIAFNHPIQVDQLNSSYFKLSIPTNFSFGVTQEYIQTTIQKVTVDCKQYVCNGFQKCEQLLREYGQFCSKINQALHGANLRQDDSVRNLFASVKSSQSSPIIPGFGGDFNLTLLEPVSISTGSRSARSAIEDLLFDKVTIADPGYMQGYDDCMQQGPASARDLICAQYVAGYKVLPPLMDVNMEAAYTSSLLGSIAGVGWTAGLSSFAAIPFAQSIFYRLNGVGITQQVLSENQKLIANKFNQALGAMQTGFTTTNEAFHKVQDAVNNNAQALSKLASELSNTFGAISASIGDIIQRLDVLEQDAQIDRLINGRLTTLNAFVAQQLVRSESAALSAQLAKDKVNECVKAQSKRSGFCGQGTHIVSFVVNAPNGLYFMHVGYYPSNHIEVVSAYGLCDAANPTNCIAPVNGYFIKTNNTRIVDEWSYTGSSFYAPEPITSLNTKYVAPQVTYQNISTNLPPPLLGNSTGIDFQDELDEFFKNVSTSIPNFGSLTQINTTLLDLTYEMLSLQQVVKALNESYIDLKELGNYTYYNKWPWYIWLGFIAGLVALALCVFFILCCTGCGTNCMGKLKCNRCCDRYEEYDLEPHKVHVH

[4] = biological target: T1, SARS-COV-2 RBD (His-tagged, …); experiment: ELISA, periplasmic extract 1/10, OD450 antigen/OD450 BSA
[5] = biological target: T1, SARS-COV-2 RBD (His-tagged, …); experiment: ELISA, coated antigen, dilution series, OD450 [3/3]
BSA [6] = biological target: T2, BSA; experiment: ELISA, coated BSA, dilution series, OD450 [3/3]
[7] = biological target: T3, MERS-COV spike expressed on transfected …; experiment: flow cytometry, transfected HEK cells, MFI GFP+/GFP- cells [2/3]
[8] = biological target: T1, SARS-COV-2 RBD (His-tagged, …); experiment: ELISA, periplasmic extract 1/10, OD450 antigen/OD450 BSA [D00002 FIG. 1 cont. D]
[9] = biological target: T3, MERS-COV spike expressed on transfected …; experiment: flow cytometry, transfected HEK cells, MFI GFP+/GFP- cells [3/3]
[10] = biological target: T1, SARS-COV-2 RBD (His-tagged, …); experiment: ELISA, coated antigen, dilution series, OD450 [1/3]
[11] = biological target: T1, SARS-COV-2 RBD (His-tagged, …); experiment: ELISA, periplasmic extract 1/10, OD450 antigen/OD450 BSA [D00002 FIG. 1 cont. D]; remark: listed apart in the source

T2 sequence (P02769 25-607 limits assumed): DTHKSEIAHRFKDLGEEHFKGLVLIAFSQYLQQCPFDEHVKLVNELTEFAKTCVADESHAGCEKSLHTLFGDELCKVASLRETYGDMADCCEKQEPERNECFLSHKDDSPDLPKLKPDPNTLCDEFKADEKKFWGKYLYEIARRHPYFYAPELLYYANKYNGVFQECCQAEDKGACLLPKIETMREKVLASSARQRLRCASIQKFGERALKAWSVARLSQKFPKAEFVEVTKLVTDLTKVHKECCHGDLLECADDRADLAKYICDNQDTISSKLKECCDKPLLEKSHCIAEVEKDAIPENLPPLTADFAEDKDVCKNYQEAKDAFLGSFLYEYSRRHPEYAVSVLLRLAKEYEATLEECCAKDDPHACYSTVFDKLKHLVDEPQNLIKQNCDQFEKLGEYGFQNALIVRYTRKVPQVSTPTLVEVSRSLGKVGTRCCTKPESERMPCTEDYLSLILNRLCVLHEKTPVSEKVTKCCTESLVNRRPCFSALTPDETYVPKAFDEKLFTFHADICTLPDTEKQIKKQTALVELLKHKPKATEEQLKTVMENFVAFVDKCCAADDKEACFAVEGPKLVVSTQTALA

B1: VHH R3_C4 (VHH)
VHH: QVQLQESGGGLVQAGDSLRLSCAVSGRPFSTYTMGWFRQAPGKEREFVAAMRWSGGTIYYADSVKGRFTISRDNDKNTVNLEMNSLKPEDTAVYYCAAAYVSKANYGSLWYRASGLYDYWGQGTQVTVSS
[1]
  binding result: no binding (tested: extract 1/10, concentration not given)
BSA [2]
  binding result: no binding (tested: 10 µg/ml)
[3]
  binding result: no binding (tested: not given)

B2: VHH R3_DC2 (VHH)
VHH: B1 VHH with A14T, A50S, I58K, A61S, T69S, K76Q, E82Q, A113N
BSA [2]
  binding result: no binding (tested: 10 µg/ml)
[4]
  binding result: no binding (tested: extract 1/10, concentration not given)
[3]
  binding result: no binding (tested: not given)

B3: VHH R3_DC9 (VHH)
VHH: B1 VHH with A14T, A50S, I58M, A61S, E82Q, A113N
[4]
  binding result: no binding (tested: extract 1/10, concentration not given)
[3]
  binding result: no binding (tested: not given)

B4: VHH R3_DC20 (VHH)
VHH: B1 VHH with D75A, K76Q, E82Q, K87E, A113N
[4]
  binding result: no binding (tested: extract 1/10, concentration not given)
[3]
  binding result: no binding (tested: not given)

B5: VHH R4_DC9 (VHH)
VHH: QVQLQESGGGLVQAGDSLRLSCAASGRIFSTYTMGWFRQAPGMEREFVAAIRWSGSTVYYADSVKGRFTISRDNAKNTVYLQMNSLKPEDTAVYYCAAARVSKANYGTLWYRASGLYDYWGQGTQVTVSS
[5]
  binding result: no binding (tested: 10 µg/ml)
BSA [6]
  binding result: no binding (tested: 10 µg/ml)
[7]
  binding result: no binding (tested: not given)

B6: VHH R4_DC13 (VHH)
VHH: B1 VHH with A14T, A50S, I58V, A61S, E82Q, S85N, L109F, A113N, G115D
[8]
  binding result: no binding (tested: extract 1/10, concentration not given)
BSA [2]
  binding result: no binding (tested: 10 µg/ml)
[7]
  binding result: no binding (tested: not given)

B7: VHH R4_DC20 (VHH)
VHH: B1 VHH with A14T, A50S, I58M, Y59N, K76Q, E82Q, A113N
[9]
  binding result: no binding (tested: not given)
[10]
  binding result: no binding (tested: 10 µg/ml)

B8: VHH R3_DC23 (VHH)
VHH: QVQLQESGGGLVQAGDSLTLSCAVSGRIFSTYTMGWFRQAPGKEREFVAAVRWGAGTIYYADSMKGRFTISRDSAKNTVDLQMNSTKPEDTAVYYCGAAYVSKANYGSLWYQDSRRYDYWGQGTQVTVSS
[10]
  binding result: no binding (tested: 10 µg/ml)
[7]
  binding result: no binding (tested: not given)

B9: VHH R4_DC6 (VHH)
VHH: QVQLQESGGGLVQAGDSLRLSCAASGRILSTFTMGWFRQAPGKEREFVAAMRWNGGTKNYADSVKGRFTISRDNANSVVYLQMNSTKPEDTAVYYCAAAYVSKANYGSLWYRTPSLYDYWGQGTQVTVSS
[5]
  binding result: no binding (tested: 10 µg/ml)
BSA [6]
  binding result: no binding (tested: 10 µg/ml)
[7]
  binding result: no binding (tested: not given)

B10: VHH R4_DC16 (VHH)
VHH: B1 VHH with D75A, K76Q, E82Q, L109S, A113N
[9]
  binding result: no binding (tested: not given)
[11]
  binding result: no binding (tested: extract 1/10, concentration not given)
BSA [2]
  binding result: no binding (tested: 10 µg/ml)

Source: patent publication US20250313611A1 (VIB VZW, published 2025)
